Results: the DeepSol protein solubility set

Test: soluble on expression in E. coli; label from the status in PepcDB or PDB records

Row | Sequence | soluble on expression in E. coli
1 | MGSDKIHHHHHHMKRLRVTLAQLNPTLGDFEGNLKKAIEALRVAEDRGSDLLVFPELFLPGYPPEDLMLRLSFLRENRKYLQKFAQHTRNLGVTVLMGFIDSDEDAYNAAAVVKDGEILGVYRKISLPNYGVFDERRYFKPGEELLVVKIGNIKVGVTICEDIWNPVEPSASLSLGEGVHLIANLSASPYHVGKPVLRKDYLSMKAYDYHVAMAYCNMVGGQDELVFDGGSMVVDASGEVINYGKLFEEEIITVDLDLDENLRVSLVDPRRRYMKTQNYPVKTVEAGNLREKSGHFEPVVNPLPVREEEMFRALITGLRDYVRKNGFEKVVIGLSGGMDSSLVAVIATEALGKENVKGVLMPSMYTSKESIEDAQTLAKNLGIETFIIPITDVFHSYLETLKGVFAGREPDITEENLQARIRGNYLMALSNKFGWLVLTTGNKSEMATGYATLYGDMAGGFAVIKDVYKTDVYRIGRWYNSWRGKEIIPENIFVKPPTAELRPGQTDQEKLPPYEVLDEILRLYIEEGLDPEEIASKGFDRKTVLDVTEMIRKNEYKRKQAAIGVKISTRAFGKDWRMPITNRFKEPL | not soluble
2 | MKLVTGFARIRKPSRPIEFGRWPNRSMSVRVPGAMPLASMNLAVGQSVRIGQRPNSSPSSLPNISFAKIRRWPSRRWLRHQGLHGPIDFGRWPNETMSIRVPGAMPLASMKLAVGQSTALAKGQTQHSQRATPLVLQRTTHTLANGQMQPIITPKRIVHQTRSHIVGGSRDIRLGMSLPGDAPAGSRCRQRRFHDALGRPKRSRTLVANRTCPGWDVASSQTWTSPAWPSPQSPSPDGFGSCQTNKDLTSRGCGG | not soluble
3 | MSLSDKHIKQTVLNSNDNRISPSHVCDIFLPQNGLSERWKAFTRRRFVIAETGFGTGLSFLTACQQFTQFRQANPTATVKELHFISFEQHPLTKSDLIKATEKWPEFAHFSQQLHAHYPPAVSDCHRIVLDEGLITLDLWFGNITDSMPQVWTNDDGIVDAWFTDGFATESNAALLKSLTIINSIAILARENSTIHAITYHQGNQQDVLEQSLTEAGFDMTESHNEGHHHHHH | soluble
4 | MGSDKIHHHHHHMRIYDPFRKKWIEEEIETPFPSKGLVATFPFVDLHVHVRLNGGEDYSSLEEASLVGGFFKVVVQPNTKPLIDSKEVLERHLDLSKNRAVEFLFAVSPFGSIEAEGERVVGFSTDGIEYDYPTLVETMKKKKKALWFDHSQMYEVDGIFYEGAPLPFQKRPRSNEAIAIARTVLTGLEYGFERFHIQHVTTKYSVEVISFLKNLAKVSCEVTPHHLFFCYEDIKNTNFKINPPLGSPEDRRALIEAVKKDVIDVLATDHAPHHEKPDDFLTAPYGSTSIEIAFPAYYTALGDLELVVKKLTKKPLEVLGVEARLTEDTLVFIDPEAEFIVDAKKFKSKGKNSMFDGVRLKGKVVALKLKGRWVMIDGEVIADQKEND | not soluble
5 | MITSECIIYLARKYQCKFILLGRSAILATEPEWSIGCVDESELKKRIMQHLIEQQEKPTPIKVQNLYKKICQSREIYQTLADIKQGGGEAEYLSIDVTDTSALKSALAPVVARLGRITGIIHGAGNLADKLIEHKTEQDFQTVYNVKIEGLHSLINCVDIAQLKFIALFSSFVSFYGNVGQSDYSLANEILNKYAYLLQRKYPECHVVSFGWGPWDGGMVTPQLKQLFTQKNIKLIPLRVGAEILAEELTQDHTKVPQLIIMSQGISVLPKAFSPEKHSYRLYRRLTLQGNPFVYDHVIGGNAVLPAVCALAWMTNICEQFYPGYHFLSCQKYKVLKGIVFDDNLANLYCLDLTEVEKSEEEIQLEALIWSETPKGIPLYHYRALINISQKSHAQQALTFEDFNYYESSLSLNPYQEGILFHHQRFRGIQKILEITANKLIASCFLPEISPAEQGQFLTQSFNPYTADMFFQCLLIWVRQTYGLGSLPLELTALKQFYTLPFNQEFLINLSIEEQSETKVVASAIAHDIQGKVYLEATNMQVTSSARLNQLFLNNTVASKNTVCMLEHHHHHH | not soluble
6 | MQVQRAITRNLAKANGYFNKTFKPPTVNYTVRGLKAGVAYLQQNQIRFNPILLQENGQAFIQQVIPHELAHILVFQQFGHVLPHGKEWQMMMEQVLGTSAEVYHTFNTQNVAGQQFAYICACQTHLLSIRLHNAILKNKRQYICKQCKQVLYYKDVLANYSNNTKKLEHHHHHH | not soluble
7 | MNEAEHSVEHPPVQGSHVEGGVVEHPDAKDFGSAAALPADPTWFKHAVFYEVLVRAFFDASADGSGDLRGLIDRLDYLQWLGIDCIWLPPFYDSPLRDGGYDIRDFYKVLPEFGTVDDFVALVDAAHRRGIRIITDLVMNHTSESHPWFQESRRDPDGPYGDYYVWSDTSERYTDARIIFVDTEESNWSFDPVRRQFYWHRFFSHQPDLNYDNPAVQEAMIDVIRFWLGLGIDGFRLDAVPYLFEREGTNCENLPETHAFLKRVRKVVDDEFPGRVLLAEANQWPGDVVEYFGDPNTGGDECHMAFHFPLMPRIFMAVRRESRFPISEIIAQTPPIPDMAQWGIFLRNHDELTLEMVTDEERDYMYAEYAKDPRMKANVGIRRRLAPLLDNDRNQIELFTALLLSLPGSPVLYYGDEIGMGDVIWLGDRDGVRIPMQWTPDRNAGFSTANPGRLYLPPSQDPVYGYQAVNVEAQRDTSTSLLNFTRTMLAVRRRHPAFAVGAFQELGGSNPSVLAYVRQVAGDDGDTVLCVNNLSRFPQPIELDLQQWTNYTPVELTGHVEFPRIGQVPYLLTLPGHGFYWFQLTTHEVGAPPTCGGERRL | soluble
8 | MAHHHHHHMESQKERGNAAYREKRYRDAINAYTAAIELDLTNVRMVATLRANQAAAKMELKEYSSALLDCEFAIQNGVNSAKLYARRARIHEALNNYDDALRDIQKASEMDGSYQREFQRTKASSKKAMRKDYYKILDLPPNESDDAQIKRAYKKACLRWHPDKWANAGPEEKTHAEKMFKDVGEAFSILSDAKKKRMYDNGMIDNAVEGAGESGFSGFPGQDEALMEMMNRMFFTGGGMSGGFGFNGFPQGRRQQYQQSYTFQFF | not soluble
9 | MKIKEVIVVEGKDDTAAIRRAVDADTIETNGAAVGADVIERIKLAKERRGVIIFTDPDFPGEKIRRTIAEQVPGCKHAFLPREAAKAKNGKGIGVEHASPDEIRRALANVYEEASDWKEEITFAELIEAGLIGGAMARRRRQRLGEELKIGYANGRQFHKRLQVFRISRDAFYAALAHVMQEEADDV | not soluble
10 | MAHHHHHHMIPRYDGLVPAIRGPASACAVASVNATPSSTTKRTAAATTVARYVICPVETTGTENAHVNATAERERRLFAFLPSVDCAAPPRELRVSSHYFEDALVASVASSDAESGEDLDEGEESHTSTARRGNTREDGAHGSNSGSRKRRRARRREPMRLEYDGFLAPATEATKRVRLVSTPASEYSHLTCVLLQLPTAWREQDMDEGEGHGRTACVSSSSTSKPLITSMPLRRPILQLWGERNTAAAGPNDGSLCTGSSAASISAAWGSDTRLQISKKDWKTMDAAEEDLHKPTNWSDDDGGDASDEGRGKSASGADDAISARARKREREEATSIAVRSFLAGTKEALRQQGAVGAADGFAQPQPAVRSDNAAPVSARVETSAPVKAAAKRATVTVPLSSGSSGSRVRSSVATPAVPPTHALTTNSAAPLPSSGVAPPDGSASLDSLACTVVTGMLSSEARRAATLMELQKRILKQLPEFATMSQKMKSTATKQEAVAWFQTSQQALRAWLVEHGHTIDSDGTVTFGDA | not soluble
11 | MAEVRARVDFKVGAKSNIDAEILSFRGLKTDKEHVAVIFKQADQTQDTPLVRMHSECLTGDVFHSSRCDCGEQLEETIQRMGESGGVILYLRQEGRGIGLYNKIDAYRLQSQGMNTYEANNHLGFDDDLRDFTEAAQMLEALGIKKIRLVTNNPKKIRELAEYGIEIVEVVNTSAHIKDGNENYLRAKVSHGKHNLKVLEHHHHHH | soluble
12 | MSLFFHSDVLSVSELNAFAKSLLENHLAGLWIAGEVSNLTRAASGHYYFSLKDSRAQVRCAMFKGAAVRLAKPLKEGDHIEVSGKISIYEARGEFQITVNEVRLKGLGQLYEAYERLKAQLQAEGAFAAERKKPLPVRPQCIGIVTSLAAAALRDVVTTLKRRAPEIPVIVYPTPVQGAGSELQIAQAIKTASQRAECDVLIVCRGGGSIEDLWAFNEEPVVRAIESCTVPVVSGVGHETDFTLADFVADMRAPTPTGAAELVSPNRQESLHRLAQAQCRLKTVLEQRYFDASQKLDWLARQIRHPRQKLDEQRASIGKLAQTLSYSMTQNVRTHTARFERQTQALKHCRPDVSVCKKNIDRFQTALSHAFHQLLTHRRQSLTAQAALLEAVSPQHILERGFSVVKNTRGQVIRNADVLKQGQKLHIIFADGETDVRVSKEQGQQDLFDCIEGHHHHHH | not soluble
